This note sets out measurements from article PMC9855569, “Construction of Bi-Enzyme Self-Assembly Clusters Based on SpyCatcher/SpyTag for the Efficient Biosynthesis of (R)-Ethyl 2-hydroxy-4-phenylbutyrate” (Biomolecules, 2023).

Broadly, the Km is the substrate concentration at which the rate is half of its maximum. What is called kcat is the number of substrate molecules converted per active site and unit of time at saturation. In general, kcat/Km refers to the second-order rate constant that governs catalysis at low substrate concentration.

Substrate in this series: CCOC(=O)C(=O)CCc1ccccc1
Put plainly: purified protein. In kind it is biochemical, Lodderomyces parapsilosis. The settings on record: apparent constant, free enzymes (CpCR with GDH), NADPH co-substrate, pH 7.0, 30 °C, OPBE 10-50 mM.

B1: CpCR (Lodderomyces parapsilosis) (protein)
chain: MTKAVPDKFQGFAVSDPKNWNRPKLASYERKQINPHDVVLKNEVCGLCYSDIHTLSAGWQPLQRDNLVVGHEIIGEVIAVGDEVTEFKVGDRVGIGAASSSCRSCQRCDSDNEQYCKQGAATYNSKDVRSNNYVTQGGYSSHSIADEKFVFAIPEDLPSSYGAPLMCAGITVFSPLIRNLGLDARGKNVGIIGIGGLGHLALQFANAMGANVTAFSRSSSKKEQAMKLGAHDFVATGEDKTWYKNYDDHFDFILNCASGIDGLNLSEYLSTLKVDKKFVSVGLPPSEDKFEVSPFTFLQQGASFGSSLLGSKTEVKEMLNLAAKHNVRPMIEEVPISEENCAKALDRCHAGDVRYRFVFTDFDKAFKA
notes: full length, 6xHis tag, recombinant in E. coli BL21(DE3), 41 kDa; free (unassembled) enzyme, in the free bi-enzyme system with GDH
Turning to B1, the Km stood at 23.94 mM, the kcat worked out at 1.76 s⁻¹ and the kcat/Km stood at 74 M⁻¹ s⁻¹.
